Laboratory results: patent US6376240

Legend:
[1] = system: recombinant His6-RFLAT-1 (C-terminal portion of RFLAT-1, amino acids 59-288)
[2] = target: RFLAT-1 full length (homo sapien) (UniProt Q9Y2Y9); assay: cell_activity; conditions: Jurkat T cells
RFLAT-1 full length (homo sapien), sequence (Q9Y2Y9 other isoform, or with tags, fused parts or gaps): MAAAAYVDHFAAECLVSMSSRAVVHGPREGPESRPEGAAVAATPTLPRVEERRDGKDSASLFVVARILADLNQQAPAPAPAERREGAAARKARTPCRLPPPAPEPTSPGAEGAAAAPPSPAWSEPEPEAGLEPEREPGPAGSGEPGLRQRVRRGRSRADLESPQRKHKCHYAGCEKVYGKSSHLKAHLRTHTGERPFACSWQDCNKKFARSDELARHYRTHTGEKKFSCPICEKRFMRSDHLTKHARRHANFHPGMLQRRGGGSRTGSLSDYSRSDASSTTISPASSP

recombinant His6-RFLAT-1 (C-terminal portion of RFLAT-1, amino acids 59-288), sequence (chain, as listed by the source): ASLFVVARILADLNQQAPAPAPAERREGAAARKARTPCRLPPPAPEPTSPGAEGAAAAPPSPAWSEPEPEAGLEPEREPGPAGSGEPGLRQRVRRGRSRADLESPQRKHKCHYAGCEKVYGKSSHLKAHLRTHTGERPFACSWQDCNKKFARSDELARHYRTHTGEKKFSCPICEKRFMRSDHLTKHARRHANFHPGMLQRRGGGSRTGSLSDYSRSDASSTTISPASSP

NILK was tested, and the “phosphorylation of recombinant RFLAT-1 by immunoprecipitated kinase” value [1] was “the immunoprecipitated NILK from activated PBLs phosphorylates recombinant RFLAT-1”.

Substance RANTES promoter pGL2-R-luciferase has an activity (fold induction) ([2]; about 5 fold in NIH3T3) of 10.

Work on three A/B sites luciferase reporter yielded an activity (fold induction) ([2]; similar degree of induction) of 10.
